Assay results: patent US7989417B2, “Linkers for radiopharmaceutical compounds” (Bracco Imaging S.p.A., priority 2003, dated 2011)

How the values were obtained:
[1] = Tracer dose biodistribution in xenografted PC3 tumor-bearing mice; settings: Lu-177 labelled; for uptake in the tumor (in words): 1 and 24 h; for uptake in the mouse pancreas (in words): compared with L134, pancreas known to have GRP receptors
Experimental: In all studies, mice were administered 100 μL of ^177Lu-labelled test compound at 200 μCi/kg, i.v., with a residence time of 1 and 24 h per group (n=3-4). Tissues were analyzed in an LKB 1282 CompuGamma counter with appropriate standards.

[2] = system: PC3 tumor; assay: Radiotherapy studies in PC3 tumor-bearing nude mouse model; format: in vivo; settings: Lu-177 labelled; for survival, short term efficacy study: 30 mCi/kg i.v. or s.c., up to 30 days, versus no treatment and versus same dose of L134
Experimental: A. Short Term Efficacy Studies: • Radiotherapy studies were performed using the PC3 tumor-bearing nude mouse model. […] (n=12 for each treatment group and n=36 for the untreated control group). For the first study, mice were administered 100 μL of ^177Lu-labelled compound of the invention at 30 mCi/kg, i.v, or s.c. under sterile conditions. The subjects were housed in a barrier environment for up to 30 days. Body weight and tumor size (by caliper measurement) were collected on each subject 3 times per week for the duration of the study. Criteria for early termination included: death; loss of total body weight (TBW) equal to or greater than 20%; tumor size equal to or greater than 2 cm^3.

[3] = system: rat epididymal fat cells; assay: Fat cell assay: activation of glucose oxidation; format: cell-based; settings: buffers containing serum albumin; compared with native insulin
[4] = system: rat epididymal fat cells; settings: bound to a 1:1 conjugate of avidin and ferritin; compared with insulin; cited from earlier work
[5] = biological target: human serum albumin (Homo sapiens, UniProt P02768); assay: Binding to human serum albumin by ultrafiltration; settings: 1 nM insulin solution in 0.6 mM human serum albumin, spiked with 125I-labeled insulin
Experimental: Binding to human serum albumin is determined by ultrafiltration according to Whitlam J. B. & Brown K. F.: J. Pharm. Sci. 70, 146-150, 1981, applying 1 nM bovine insulin solution in 0.6 mM human serum albumin, spiked with ^125I-labeled insulin. 95% of the insulin is bound. It is evident that such binding to albumin will reduce the renal elimination of the modified insulin (Compounds B and D) relative to that of native insulin.

**Q.** For CSCC[C@H](NC(=O)[C@H](CC(C)C)NC(=O)[C@H](Cc1c[nH]cn1)NC(=O)CNC(=O)[C@@H](NC(=O)[C@H](C)NC(=O)[C@H](Cc1c[nH]c2ccccc12)NC(=O)[C@H](CCC(N)=O)NC(=O)CC[C@@H](C)[C@H]1CC[C@H]2[C@@H]3[C@H](O)C[C@@H]4C[C@@H](NC(=O)CNC(=O)CN5CCN(CC(=O)O)CCN(CC(=O)O)CCN(CC(=O)O)CC5)CC[C@]4(C)[C@H]3C[C@H](O)[C@]12C)C(C)C)C(N)=O [Compound L64, N-[(3β,5β,7α,12α)-3-[[[[[4,7,10-Tris(carboxymethyl)-1,4,7,10-tetraazacyclododec-1-yl]acetyl]amino]acetyl]amino]-7,12-dihydroxy-24-oxocholan-24-yl]-L-glutaminyl-L-tryptophyl-L-alanyl-L-valyl-glycyl-L-histidyl-L-leucyl-L-methioninamide], which “uptake in the tumor (in words)” value ([1]; compared with control L134) is on record?
**A.** Its value is “much higher”.

**Q.** And the “uptake in the mouse pancreas (in words)” value [1]?
**A.** The value was “much higher”.

**Q.** And the “survival, short term efficacy study” value [2]?
**A.** Its value is “increased survival”.

**Q.** And the “survival, repeat study” value ([2]; same dose, n=46, followed longer, relative to controls (n=36), p<0.0001)?
**A.** The value was “significantly increased survival”.

**Q.** With “Bovine 1-[[(3β,5β,12α)-23-[(1,1-dimethyl)ethoxycarbonyl]-12-hydroxy-24-norcholan-3-yl]amino]carbonyl-3,5-bis[[4-(insulin-N^εB29-yl)-1,4-dioxobutyl]amino]benzene [Compound D]” as the compound, how does the “activity in fat cell assay (activation of glucose oxidation)” value [3] read?
**A.** The value was “identical activity to native insulin”.

**Q.** Which “dose-response curve for the activation of glucose oxidation” value [4] does the source give for N^εB29-biotinylinsulin here?
**A.** The value was “same dose-response curve as insulin”.

**Q.** Which results are given for “Bovine N^eB29-[4-[[(3β,5β,12α)-23-carboxy-12-hydroxy-24-norcholan-3-yl]amino]-4-oxobutanoyl]-insulin [Compound B]”?
**A.** bound to human serum albumin [5]: 95%; activity in fat cell assay (activation of glucose oxidation) [3]: identical activity to native insulin

**Q.** With CSCC[C@H](NC(=O)[C@H](CC(C)C)NC(=O)[C@H](Cc1c[nH]cn1)NC(=O)CNC(=O)[C@@H](NC(=O)[C@H](C)NC(=O)[C@H](Cc1c[nH]c2ccccc12)NC(=O)[C@H](CCC(N)=O)NC(=O)CC[C@@H](C)[C@H]1CC[C@H]2[C@@H]3CC[C@@H]4C[C@@H](NC(=O)CNC(=O)CN5CCN(CC(=O)O)CCN(CC(=O)O)CCN(CC(=O)O)CC5)CC[C@]4(C)[C@H]3C[C@H](O)[C@]12C)C(C)C)C(N)=O [Compound L63, N-[(3β,5β,12α)-3-[[[[[4,7,10-Tris(carboxymethyl)-1,4,7,10-tetraazacyclododec-1-yl]acetyl]amino]acetyl]amino]-12-hydroxy-24-oxocholan-24-yl]-L-glutaminyl-L-tryptophyl-L-alanyl-L-valyl-glycyl-L-histidyl-L-leucyl-L-methioninamide] as the compound, how does the “uptake in the tumor (in words)” value ([1]; compared with control L134) read?
**A.** The value was “high tumour uptake”.

**Q.** What about the “uptake in the mouse pancreas (in words)” value [1] of the same compound?
**A.** Its value is “much higher”.

**Q.** What about the “distribution of radioactivity in blood, liver and kidneys (in words)” value ([1]; compared with control L134) of the same compound?
**A.** The value was “increased blood and liver values at early times”.

**Q.** And the “survival, short term efficacy study” value [2]?
**A.** Its value is “increased survival”.
